Source: US20140348747A1

Legend:
Assay in all cases: cell-based or functional assay
[1] = target: wild-type non-luminescent polypeptide (WT fragment of residues 1-156 of NanoLuc)
NLpep53-HT = target: NLpep53-HT
NLpep9-HT = target: NLpep9-HT

Substance	luminescence after complementation (relative; unit not given) [1]	luminescence after complementation (RLU(mutant)/RLU(WT)) (NLpep53-HT)	luminescence after complementation (RLU(mutant)/RLU(WT)) (NLpep9-HT)
HT-NLpep A169E	0.846	–	–
HT-NLpep A169N	0.911	–	–
HT-NLpep A169T	0.945	–	–
HT-NLpep C164T	0.0116	–	–
HT-NLpep G157D	0.114	–	–
HT-NLpep G157H	0.938	–	–
HT-NLpep G157S	1.99	–	–
HT-NLpep I167F	0.283	–	–
HT-NLpep I167Q	0.0178	–	–
HT-NLpep I167R	0.0464	–	–
HT-NLpep I167V	0.877	–	–
HT-NLpep L163K	0.0885	–	–
HT-NLpep L163V	0.173	–	–
HT-NLpep R166K	1.09	–	–
HT-NLpep T159Q	0.398	–	–
HT-NLpep T159V	0.566	–	–
HT-NLpep V158A	0.135	–	–
HT-NLpep V158I	0.608	–	–
HT-NLpep V158K	0.077	–	–
HT-NLpep V158Q	0.0445	–	–
HT-NLpep W161K	0.0002	–	–
NLpep-HT A169L	0.905	–	–
NLpep-HT A169N	1.78	–	–
NLpep-HT A169R	0.501	–	–

Substance	luminescence after complementation (relative; unit not given) [1]	luminescence after complementation (RLU(mutant)/RLU(WT)) (NLpep53-HT)	luminescence after complementation (RLU(mutant)/RLU(WT)) (NLpep9-HT)
NLpep-HT C164A	0.0858	–	–
NLpep-HT C164K	0.0005	–	–
NLpep-HT C164L	1.02	–	–
NLpep-HT C164M	3.26	–	–
NLpep-HT C164N	0.108	–	–
NLpep-HT C164S	0.0202	–	–
NLpep-HT C164T	0.0084	–	–
NLpep-HT G157C	0.0468	–	–
NLpep-HT G157E	1.45	–	–
NLpep-HT G157H	0.573	–	–
NLpep-HT G157N	3.31	–	–
NLpep-HT G157P	0.0543	–	–
NLpep-HT I167F	0.179	–	–
NLpep-HT I167Q	0.117	–	–
NLpep-HT I167V	1.08	–	–
NLpep-HT L163I	0.292	–	–
NLpep-HT L163K	0.0786	–	–
NLpep-HT L163T	0.0262	–	–
NLpep-HT L163V	0.119	–	–
NLpep-HT T159K	0.0307	–	–
NLpep-HT T159Q	0.031	–	–
NLpep-HT T159V	0.0455	–	–
NLpep-HT V158A	0.144	–	–
NLpep-HT V158I	1.6	–	–

Substance	luminescence after complementation (relative; unit not given) [1]	luminescence after complementation (RLU(mutant)/RLU(WT)) (NLpep53-HT)	luminescence after complementation (RLU(mutant)/RLU(WT)) (NLpep9-HT)
NLpep-HT V158Q	0.0397	–	–
NLpep-HT V158S	0.0838	–	–
NLpep-HT W161F	0.0717	–	–
NLpep-HT W161K	0.0008	–	–
NLpep-HT W161T	0.01	–	–
NLpoly F31I	–	2.83	4.1
NLpoly F31V	–	2.12	2.12
NLpoly G15S	–	2.34	1.98
NLpoly G67D	–	1.57	1.78
NLpoly I59T	–	1.35	1.07
NLpoly L18Q	–	2.99	3.81
NLpoly M106I	–	1.31	1.27
NLpoly N33R	–	1.56	2.1
NLpoly N144T	–	2.26	3.69
NLpoly N156D	–	1.21	1.57
NLpoly N156S	–	1.4	1.04
NLpoly Q20K	–	2.33	4.43
NLpoly Q32R	–	1.04	1.52
NLpoly R11N	–	2.09	3.37
NLpoly T13I	–	1.44	2.18
NLpoly V27M	–	1.7	1.99
NLpoly V58A	–	1.07	1.88

Continued, values first:

luminescence after complementation (relative; unit not given) [1]	luminescence after complementation (RLU(mutant)/RLU(WT)) (NLpep53-HT)	luminescence after complementation (RLU(mutant)/RLU(WT)) (NLpep9-HT)	Substance
1.11	–	–	HT-NLpep A169L
0.985	–	–	HT-NLpep A169R
0.0874	–	–	HT-NLpep C164N
0.196	–	–	HT-NLpep G157E
0.641	–	–	HT-NLpep G157N
0.277	–	–	HT-NLpep I167E
0.0259	–	–	HT-NLpep L163T
0.0512	–	–	HT-NLpep L163Y
0.103	–	–	HT-NLpep R166N
0.049	–	–	HT-NLpep T159K
0.0487	–	–	HT-NLpep V158S
0.0028	–	–	HT-NLpep W161T
0.0086	–	–	HT-NLpep W161V
0.789	–	–	NLpep-HT A169E
1.37	–	–	NLpep-HT A169T
13.3	–	–	NLpep-HT C164F
0.76	–	–	NLpep-HT C164H
0.0211	–	–	NLpep-HT C164Q
1.01	–	–	NLpep-HT C164Y
0.549	–	–	NLpep-HT G157D

luminescence after complementation (relative; unit not given) [1]	luminescence after complementation (RLU(mutant)/RLU(WT)) (NLpep53-HT)	luminescence after complementation (RLU(mutant)/RLU(WT)) (NLpep9-HT)	Substance
1.72	–	–	NLpep-HT G157S
0.244	–	–	NLpep-HT I167E
0.0469	–	–	NLpep-HT I167R
0.196	–	–	NLpep-HT L163Y
1.21	–	–	NLpep-HT R166K
0.118	–	–	NLpep-HT R166N
0.192	–	–	NLpep-HT V158K
0.0012	–	–	NLpep-HT W161E
0.005	–	–	NLpep-HT W161V
0.215	–	–	NLpep-HT W161Y
–	1.88	2.08	NLpoly D108N
–	2.86	3.13	NLpoly F31L
–	1.29	1.22	NLpoly G67S
–	1.81	0.44	NLpoly I56N
–	2.05	2.08	NLpoly K75E
–	2.16	2.89	NLpoly L149M
–	1.4	1.3	NLpoly M106V
–	1.76	2.15	NLpoly N33K
–	1.45	1.61	NLpoly R112N
–	3.02	4.98	NLpoly V157D
